Laboratory results reported in paper PMC3042988, “The activation mechanism of Irga6, an interferon-inducible GTPase contributing to mouse resistance against Toxoplasma gondii” (BMC Biology, 2011).

B1: Irga6 (IIGP1), wild type, recombinant, GST cleaved off [mouse] / itself (parent)
chain: MGQLFSSPKSDENNDLPSSFTGYFKKFNTGRKIISQEILNLIELRMRKGNIQLTNSAISDALKEIDSSVLNVAVTGETGSGKSSFINTLRGIGNEEEGAAKTGVVEVTMERHPYKHPNIPNVVFWDLPGIGSTNFPPNTYLEKMKFYEYDFFIIISATRFKKNDIDIAKAISMMKKEFYFVRTKVDSDITNEADGKPQTFDKEKVLQDIRLNCVNTFRENGIAEPPIFLLSNKNVCHYDFPVLMDKLISDLPIYKRHNFMVSLPNITDSVIEKKRQFLKQRIWLEGFAADLVNIIPSLTFLLDSDLETLKKSMKFYRTVFGVDETSLQRLARDWEIEVDQVEAMIKSPAVFKPTDEETIQERLSRYIQEFCLANGYLLPKNSFLKEIFYLKYYFLDMVTEDAKTLLKEICL

Variants of: B1
Assay: light scattering (homo-oligomerisation)
Conditions: with itself; 80 µM Irga6; 10 mM GTP; 37°C; peak of the time course, at about 15 min; read off a plot

response	Variant
8.2 a. u.	chain 1 E64K

Same assay, conditions: with itself; 80 µM Irga6; 10 mM GTP; 37°C; peak of the time course, at about 10 min; read off a plot

response	Variant
9 a. u.	chain 1 E97R
